Test results as given in US20170143798A1.

T1: human IL-22 receptor (IL-22R1) on human LS174T cells and human islets (human) (UniProt Q8N6P7)
T1 sequence (looked up): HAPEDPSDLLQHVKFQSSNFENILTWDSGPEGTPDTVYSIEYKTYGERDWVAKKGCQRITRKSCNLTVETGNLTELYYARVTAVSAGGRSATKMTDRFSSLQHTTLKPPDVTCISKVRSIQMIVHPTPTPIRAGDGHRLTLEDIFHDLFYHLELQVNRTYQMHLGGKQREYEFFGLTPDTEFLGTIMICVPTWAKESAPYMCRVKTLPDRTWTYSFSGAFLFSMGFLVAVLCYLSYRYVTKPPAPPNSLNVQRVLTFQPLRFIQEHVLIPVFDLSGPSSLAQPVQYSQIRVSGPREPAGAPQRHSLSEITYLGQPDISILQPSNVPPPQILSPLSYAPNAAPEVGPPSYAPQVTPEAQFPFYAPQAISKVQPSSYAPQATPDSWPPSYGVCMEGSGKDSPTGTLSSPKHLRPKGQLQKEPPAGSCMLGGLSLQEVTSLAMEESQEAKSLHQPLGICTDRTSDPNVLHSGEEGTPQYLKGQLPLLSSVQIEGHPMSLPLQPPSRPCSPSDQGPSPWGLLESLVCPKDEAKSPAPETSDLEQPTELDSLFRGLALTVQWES


What was measured:
[1] = biological target: mouse IL-22 receptor (IL-22R1) on murine MIN6N8 β-cells and murine islets (mouse) (UniProt Q80XZ4); assay: cell-based or functional assay
[2] = biological target: T1, human IL-22 receptor (IL-22R1) on human LS174T cells and human islets (human); assay: cell-based or functional assay

Chain of UniProt Q80XZ4 (Q80XZ4 16-581): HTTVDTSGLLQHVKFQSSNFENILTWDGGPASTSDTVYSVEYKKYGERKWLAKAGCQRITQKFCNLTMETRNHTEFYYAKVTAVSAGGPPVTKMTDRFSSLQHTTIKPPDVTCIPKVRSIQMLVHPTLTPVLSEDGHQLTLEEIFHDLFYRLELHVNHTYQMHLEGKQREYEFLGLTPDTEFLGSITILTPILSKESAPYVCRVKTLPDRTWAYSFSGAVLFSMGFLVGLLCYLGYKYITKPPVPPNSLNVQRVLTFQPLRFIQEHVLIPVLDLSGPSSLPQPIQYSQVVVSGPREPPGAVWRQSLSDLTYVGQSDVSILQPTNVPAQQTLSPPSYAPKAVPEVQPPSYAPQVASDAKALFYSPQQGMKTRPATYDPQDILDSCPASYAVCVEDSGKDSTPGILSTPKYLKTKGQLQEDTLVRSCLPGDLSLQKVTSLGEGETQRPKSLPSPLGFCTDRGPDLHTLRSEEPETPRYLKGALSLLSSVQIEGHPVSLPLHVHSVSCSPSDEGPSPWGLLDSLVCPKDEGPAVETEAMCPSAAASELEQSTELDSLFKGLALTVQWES

Row | reduction of ER stress (ERAI-sXBP1 reporter) in murine MIN6N8 cells with 0.5 mM palmitate; amount needed against recombinant mouse IL-22 [1] [fold] | suppression of oxidative stress (nitrite production) in human LS174T cells with 0.5 mM palmitate; concentration needed against human recombinant IL-22 [2] [fold] | Molecule
1 | 16 |  | recombinant human IL-22 (from UniProt Q9GZX6 34-179) (ligand)
2 |  | 64 | recombinant mouse IL-22 (ligand, UniProt Q9JJY9 34-179, looked up) LPVNTRCKLEVSNFQQPYIVNRTFMLAKEASLADNNTDVRLIGEKLFRGVSAKDQCYLMKQVLNFTLEDVLLPQSDRFQPYMQEVVPFLTKLSNQLSSCHISGDDQNIQKNVRRLKETVKKLGESGEIKAIGELDLLFMSLRNACV
